Biological target: Jak2 (UniProt O60674)
Experiment: phosphorylation enrichment, bacterial display (enrichment ratio); higher = better substrate or ligand; peptides without Tyr show the background
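Further: 11-residue human phosphosite peptides and single-mutation variants displayed on the E. coli surface, counted by deep sequencing, each peptide's frequency after selection divided by its frequency in the unselected input library; frequency after pTyr selection over input frequency; kinase dosed for 20-30% of maximal phosphorylation in three min.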

Jak2, sequence (O60674 whole entry, looked up): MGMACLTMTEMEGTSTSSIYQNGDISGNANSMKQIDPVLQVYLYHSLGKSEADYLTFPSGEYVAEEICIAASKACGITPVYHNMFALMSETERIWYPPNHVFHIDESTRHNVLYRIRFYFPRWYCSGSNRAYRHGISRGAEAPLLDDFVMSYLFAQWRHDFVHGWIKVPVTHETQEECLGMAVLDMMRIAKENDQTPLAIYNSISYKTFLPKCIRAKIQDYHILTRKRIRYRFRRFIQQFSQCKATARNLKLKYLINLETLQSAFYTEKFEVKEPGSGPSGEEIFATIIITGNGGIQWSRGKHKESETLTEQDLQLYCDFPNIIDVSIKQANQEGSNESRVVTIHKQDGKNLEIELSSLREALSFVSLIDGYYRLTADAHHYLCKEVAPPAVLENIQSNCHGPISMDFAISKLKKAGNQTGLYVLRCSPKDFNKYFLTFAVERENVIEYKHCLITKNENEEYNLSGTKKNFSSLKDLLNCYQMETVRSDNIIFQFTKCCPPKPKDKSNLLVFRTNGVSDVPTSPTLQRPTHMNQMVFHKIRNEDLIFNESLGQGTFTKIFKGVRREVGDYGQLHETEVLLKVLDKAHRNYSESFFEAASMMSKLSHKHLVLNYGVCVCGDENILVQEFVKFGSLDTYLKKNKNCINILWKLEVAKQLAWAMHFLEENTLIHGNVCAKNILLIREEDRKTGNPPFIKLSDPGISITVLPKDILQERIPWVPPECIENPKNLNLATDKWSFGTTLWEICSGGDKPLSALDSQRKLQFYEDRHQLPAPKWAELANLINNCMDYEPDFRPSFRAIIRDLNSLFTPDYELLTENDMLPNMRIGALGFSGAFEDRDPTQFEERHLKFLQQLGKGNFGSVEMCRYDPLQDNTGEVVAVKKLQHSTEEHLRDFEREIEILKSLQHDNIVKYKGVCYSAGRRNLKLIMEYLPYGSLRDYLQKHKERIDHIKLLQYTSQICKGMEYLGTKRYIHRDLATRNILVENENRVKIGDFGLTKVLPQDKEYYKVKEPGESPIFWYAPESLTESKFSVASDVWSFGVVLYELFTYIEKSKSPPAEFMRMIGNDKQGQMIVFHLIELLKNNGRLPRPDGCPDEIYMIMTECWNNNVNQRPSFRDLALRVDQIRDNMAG

In order of rising phosphorylation enrichment:
1. YSKTQYNQVPR [CXADR_Y318_S323R]  0.451
2. NHFKIHNLCAE [PTEN_Y68_Y68H_YF]  0.459
3. MHYSNYVSKGS [PDGFRA_Y849_D846Y]  0.467
4. INQGPYENRSV [ATP6V1B1_Y462]  0.47
5. FPPISYLNAIS [MVD_Y276]  0.51
6. MARDISRASFF [ALK_Y1278_Y1278S_YF]  0.53
7. NAPNSYGRRLI [CDKN2A_Y44_P48L]  0.531
8. GRSTYYWPRPR [GAGE12J_Y10]  0.543
9. GSRGKYSSGFC [ATM_Y332_R337C]  0.545
10. TSFSGYRFHRH [NKAPL_Y94_YF]  0.546
11. FRNSLYAPDYS [FAM92A_Y226]  0.58
12. GLRFGYGGLGG [KRTAP20-2_Y15_V17G_YF]  0.581
13. MIRSAYALGGL [CPS1_Y590]  0.597
14. EWLRRYLENGK [HLA-A_Y195]  0.661
15. TDEYEYDELIV [TGM1_Y136]  0.785
16. NGSKAYAYVHF [PABPC5_Y147_G146A]  0.796
17. PVQAAYPKVVA [HBB_Y131_Q132P]  0.828
18. ILQSMYGCDVG [HLA-B_Y123_T118I]  0.893
19. KIVFVYVKKRS [DNAI2_Y7_E2K_YF]  0.925
20. EKSREYDRLFE [PIK3R1_Y463_YF]  0.935
21. YRDALYKFIVD [PHEX_Y250_M253I]  1
22. RGDCMYASLLG [AR_Y269_P271S]  1.03
23. KGEDFYSVTCH [FHL1_Y149_C150S]  1.13
24. QKPLGYFRVNL [GALE_Y104_D103G_YF]  1.16
25. RYLKDYGEFEV [GINS1_Y156_C152Y]  1.2
26. IEPGIYIPEDD [XPNPEP3_Y455]  1.24
27. LVTRSYLLGNS [LMNA_Y646]  1.27
28. LPIQTYSALNF [DES_Y423]  1.27
29. DTLMEYLENPK [CYCS_Y68]  1.28
30. IPGGIYDADLN [CST4_Y35]  1.4
31. IMAFFYMCDSA [CASD1_Y382_R386S_YF]  1.41
32. QTPVLYAMLYH [MPZ_Y220_D224Y]  1.89
33. GTSLIYWTLFT [G6PC3_Y214]  3

Biological target: Fyn (UniProt P06241)
Sequence (P06241 whole entry, looked up): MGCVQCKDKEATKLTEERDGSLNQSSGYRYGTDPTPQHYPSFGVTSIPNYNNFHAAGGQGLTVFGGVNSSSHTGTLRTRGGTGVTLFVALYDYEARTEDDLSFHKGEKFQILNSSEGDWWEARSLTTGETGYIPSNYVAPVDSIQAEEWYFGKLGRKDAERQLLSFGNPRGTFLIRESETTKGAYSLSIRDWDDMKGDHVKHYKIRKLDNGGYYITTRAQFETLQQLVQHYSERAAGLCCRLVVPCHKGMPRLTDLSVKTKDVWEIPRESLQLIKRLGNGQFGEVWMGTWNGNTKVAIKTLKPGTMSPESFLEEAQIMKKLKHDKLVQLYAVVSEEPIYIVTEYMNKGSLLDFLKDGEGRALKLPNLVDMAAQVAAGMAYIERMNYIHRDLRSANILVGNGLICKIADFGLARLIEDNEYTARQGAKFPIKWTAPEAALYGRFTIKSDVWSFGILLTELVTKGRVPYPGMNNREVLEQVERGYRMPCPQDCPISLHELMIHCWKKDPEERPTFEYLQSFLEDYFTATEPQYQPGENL
Experiment: as above

In order of rising phosphorylation enrichment:
1. YSKTQYNQVPR [CXADR_Y318_S323R]  0.319
2. EWLRRYLENGK [HLA-A_Y195]  0.346
3. INQGPYENRSV [ATP6V1B1_Y462]  0.38
4. GLRFGYGGLGG [KRTAP20-2_Y15_V17G_YF]  0.394
5. NGSKAYAYVHF [PABPC5_Y147_G146A]  0.4
6. MIRSAYALGGL [CPS1_Y590]  0.41
7. NAPNSYGRRLI [CDKN2A_Y44_P48L]  0.413
8. PVQAAYPKVVA [HBB_Y131_Q132P]  0.42
9. MHYSNYVSKGS [PDGFRA_Y849_D846Y]  0.424
10. KIVFVYVKKRS [DNAI2_Y7_E2K_YF]  0.425
11. MARDISRASFF [ALK_Y1278_Y1278S_YF]  0.443
12. EKSREYDRLFE [PIK3R1_Y463_YF]  0.448
13. GSRGKYSSGFC [ATM_Y332_R337C]  0.464
14. NHFKIHNLCAE [PTEN_Y68_Y68H_YF]  0.466
15. TSFSGYRFHRH [NKAPL_Y94_YF]  0.472
16. DTLMEYLENPK [CYCS_Y68]  0.484
17. FPPISYLNAIS [MVD_Y276]  0.488
18. ILQSMYGCDVG [HLA-B_Y123_T118I]  0.489
19. GRSTYYWPRPR [GAGE12J_Y10]  0.524
20. IMAFFYMCDSA [CASD1_Y382_R386S_YF]  0.548
21. TDEYEYDELIV [TGM1_Y136]  0.57
22. IEPGIYIPEDD [XPNPEP3_Y455]  0.59
23. YRDALYKFIVD [PHEX_Y250_M253I]  0.623
24. QKPLGYFRVNL [GALE_Y104_D103G_YF]  0.657
25. FRNSLYAPDYS [FAM92A_Y226]  0.734
26. LVTRSYLLGNS [LMNA_Y646]  0.823
27. RYLKDYGEFEV [GINS1_Y156_C152Y]  1.54
28. IPGGIYDADLN [CST4_Y35]  1.76
29. QTPVLYAMLYH [MPZ_Y220_D224Y]  4.4
30. KGEDFYSVTCH [FHL1_Y149_C150S]  5.87
31. RGDCMYASLLG [AR_Y269_P271S]  6.63
32. GTSLIYWTLFT [G6PC3_Y214]  8.42
33. LPIQTYSALNF [DES_Y423]  13.8

Biological target: EPHB1 (UniProt P54762)
Sequence (P54762 whole entry, looked up): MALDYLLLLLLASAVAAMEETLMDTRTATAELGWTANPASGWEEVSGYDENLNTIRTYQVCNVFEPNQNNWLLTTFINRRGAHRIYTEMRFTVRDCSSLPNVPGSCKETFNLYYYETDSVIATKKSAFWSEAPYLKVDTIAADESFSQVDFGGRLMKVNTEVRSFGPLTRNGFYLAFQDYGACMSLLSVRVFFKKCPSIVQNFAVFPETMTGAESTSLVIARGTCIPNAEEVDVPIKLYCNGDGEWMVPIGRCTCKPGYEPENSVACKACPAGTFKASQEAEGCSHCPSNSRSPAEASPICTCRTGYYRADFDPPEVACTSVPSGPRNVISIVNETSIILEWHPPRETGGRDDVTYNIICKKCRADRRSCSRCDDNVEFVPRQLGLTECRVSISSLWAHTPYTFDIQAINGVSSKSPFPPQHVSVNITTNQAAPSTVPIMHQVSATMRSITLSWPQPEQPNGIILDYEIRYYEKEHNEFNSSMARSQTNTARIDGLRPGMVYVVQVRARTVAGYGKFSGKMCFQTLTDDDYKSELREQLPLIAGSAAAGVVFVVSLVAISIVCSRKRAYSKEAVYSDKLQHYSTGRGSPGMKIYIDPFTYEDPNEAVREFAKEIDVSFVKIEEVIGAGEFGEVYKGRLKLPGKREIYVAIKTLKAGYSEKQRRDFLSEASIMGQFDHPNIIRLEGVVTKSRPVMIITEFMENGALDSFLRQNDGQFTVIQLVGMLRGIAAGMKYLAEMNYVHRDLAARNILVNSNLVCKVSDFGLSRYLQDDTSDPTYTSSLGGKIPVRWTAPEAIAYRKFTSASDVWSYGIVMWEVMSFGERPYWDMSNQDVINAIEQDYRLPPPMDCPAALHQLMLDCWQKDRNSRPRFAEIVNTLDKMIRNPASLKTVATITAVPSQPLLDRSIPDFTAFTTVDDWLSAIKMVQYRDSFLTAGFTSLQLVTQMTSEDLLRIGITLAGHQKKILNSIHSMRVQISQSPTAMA
Experiment: as above

In order of falling phosphorylation enrichment:
1. LPIQTYSALNF [DES_Y423]  14.3
2. QTPVLYAMLYH [MPZ_Y220_D224Y]  9.9
3. GTSLIYWTLFT [G6PC3_Y214]  3.96
4. RGDCMYASLLG [AR_Y269_P271S]  2.43
5. YRDALYKFIVD [PHEX_Y250_M253I]  1.97
6. FRNSLYAPDYS [FAM92A_Y226]  1.23
7. RYLKDYGEFEV [GINS1_Y156_C152Y]  1.16
8. LVTRSYLLGNS [LMNA_Y646]  0.931
9. PVQAAYPKVVA [HBB_Y131_Q132P]  0.902
10. IMAFFYMCDSA [CASD1_Y382_R386S_YF]  0.896
11. KGEDFYSVTCH [FHL1_Y149_C150S]  0.806
12. DTLMEYLENPK [CYCS_Y68]  0.672
13. ILQSMYGCDVG [HLA-B_Y123_T118I]  0.659
14. IEPGIYIPEDD [XPNPEP3_Y455]  0.598
15. TDEYEYDELIV [TGM1_Y136]  0.588
16. IPGGIYDADLN [CST4_Y35]  0.582
17. QKPLGYFRVNL [GALE_Y104_D103G_YF]  0.518
18. NGSKAYAYVHF [PABPC5_Y147_G146A]  0.514
19. GRSTYYWPRPR [GAGE12J_Y10]  0.474
20. MARDISRASFF [ALK_Y1278_Y1278S_YF]  0.463
21. EKSREYDRLFE [PIK3R1_Y463_YF]  0.457
22. GLRFGYGGLGG [KRTAP20-2_Y15_V17G_YF]  0.455
23. GSRGKYSSGFC [ATM_Y332_R337C]  0.441
24. KIVFVYVKKRS [DNAI2_Y7_E2K_YF]  0.439
25. TSFSGYRFHRH [NKAPL_Y94_YF]  0.429
26. MHYSNYVSKGS [PDGFRA_Y849_D846Y]  0.412
27. EWLRRYLENGK [HLA-A_Y195]  0.386
28. NHFKIHNLCAE [PTEN_Y68_Y68H_YF]  0.384
29. FPPISYLNAIS [MVD_Y276]  0.383
30. INQGPYENRSV [ATP6V1B1_Y462]  0.381
31. NAPNSYGRRLI [CDKN2A_Y44_P48L]  0.372
32. MIRSAYALGGL [CPS1_Y590]  0.358
33. YSKTQYNQVPR [CXADR_Y318_S323R]  0.315

Biological target: Fes (UniProt P07332)
Sequence (P07332 whole entry, looked up): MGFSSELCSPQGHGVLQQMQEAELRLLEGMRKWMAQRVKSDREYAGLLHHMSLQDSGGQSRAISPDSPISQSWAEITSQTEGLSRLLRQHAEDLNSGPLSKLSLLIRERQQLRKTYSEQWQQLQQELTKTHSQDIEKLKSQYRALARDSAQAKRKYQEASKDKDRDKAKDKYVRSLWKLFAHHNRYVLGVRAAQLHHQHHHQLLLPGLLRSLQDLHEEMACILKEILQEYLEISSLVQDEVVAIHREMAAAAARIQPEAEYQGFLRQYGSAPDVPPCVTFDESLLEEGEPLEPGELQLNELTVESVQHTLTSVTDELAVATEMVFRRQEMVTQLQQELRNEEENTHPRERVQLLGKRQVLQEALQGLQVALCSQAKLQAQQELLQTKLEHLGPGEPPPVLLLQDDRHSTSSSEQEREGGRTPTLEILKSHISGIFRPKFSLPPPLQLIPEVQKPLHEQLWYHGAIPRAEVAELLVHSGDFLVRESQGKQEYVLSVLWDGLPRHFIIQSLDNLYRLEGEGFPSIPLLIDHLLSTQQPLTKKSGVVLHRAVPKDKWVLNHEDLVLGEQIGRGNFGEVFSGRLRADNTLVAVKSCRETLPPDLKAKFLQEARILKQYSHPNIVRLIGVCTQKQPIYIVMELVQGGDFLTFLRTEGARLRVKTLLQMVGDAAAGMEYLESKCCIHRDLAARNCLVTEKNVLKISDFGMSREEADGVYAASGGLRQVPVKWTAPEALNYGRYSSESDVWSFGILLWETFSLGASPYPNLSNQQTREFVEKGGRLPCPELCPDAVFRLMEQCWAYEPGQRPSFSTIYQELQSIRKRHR
Experiment: as above

In order of rising phosphorylation enrichment:
1. GRSTYYWPRPR [GAGE12J_Y10]  0.444
2. MHYSNYVSKGS [PDGFRA_Y849_D846Y]  0.533
3. MIRSAYALGGL [CPS1_Y590]  0.534
4. YSKTQYNQVPR [CXADR_Y318_S323R]  0.542
5. GSRGKYSSGFC [ATM_Y332_R337C]  0.559
6. NAPNSYGRRLI [CDKN2A_Y44_P48L]  0.616
7. INQGPYENRSV [ATP6V1B1_Y462]  0.622
8. NHFKIHNLCAE [PTEN_Y68_Y68H_YF]  0.642
9. FPPISYLNAIS [MVD_Y276]  0.675
10. MARDISRASFF [ALK_Y1278_Y1278S_YF]  0.682
11. FRNSLYAPDYS [FAM92A_Y226]  0.725
12. GLRFGYGGLGG [KRTAP20-2_Y15_V17G_YF]  0.739
13. TSFSGYRFHRH [NKAPL_Y94_YF]  0.788
14. PVQAAYPKVVA [HBB_Y131_Q132P]  0.804
15. EWLRRYLENGK [HLA-A_Y195]  0.809
16. ILQSMYGCDVG [HLA-B_Y123_T118I]  0.935
17. KIVFVYVKKRS [DNAI2_Y7_E2K_YF]  0.966
18. EKSREYDRLFE [PIK3R1_Y463_YF]  0.993
19. NGSKAYAYVHF [PABPC5_Y147_G146A]  1.03
20. QKPLGYFRVNL [GALE_Y104_D103G_YF]  1.12
21. TDEYEYDELIV [TGM1_Y136]  1.2
22. LPIQTYSALNF [DES_Y423]  1.24
23. YRDALYKFIVD [PHEX_Y250_M253I]  1.25
24. IPGGIYDADLN [CST4_Y35]  1.32
25. KGEDFYSVTCH [FHL1_Y149_C150S]  1.35
26. IEPGIYIPEDD [XPNPEP3_Y455]  1.38
27. RGDCMYASLLG [AR_Y269_P271S]  1.39
28. QTPVLYAMLYH [MPZ_Y220_D224Y]  1.43
29. DTLMEYLENPK [CYCS_Y68]  1.49
30. LVTRSYLLGNS [LMNA_Y646]  1.52
31. RYLKDYGEFEV [GINS1_Y156_C152Y]  1.6
32. IMAFFYMCDSA [CASD1_Y382_R386S_YF]  1.78
33. GTSLIYWTLFT [G6PC3_Y214]  1.97
